Measurements as given in the nanobody polyreactivity screen of Harvey et al. (2022).

Assay: yeast display, Sf9 membrane polyspecificity reagent, FACS + sequencing; frameworks hold sequencing errors
How it was run: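 After 36–48 hours of galactose induction, yeast (Saccharomyces cerevisiae BJ5465) displaying a synthetic nanobody library were stained at 4 °C for 1 hour with 10% biotinylated, detergent-solubilized Sf9 membrane reagent. Streptavidin microbeads enriched the stained cells before FACS sorting into low and high (top ~1%) gates on anti-HA and streptavidin fluorescence. Each clone's polyreactivity label reflects its gate of origin.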

Sequence	polyreactivity (PSR sort gate)
QVHLVESGGGLVQAGGRLRLSCAASGGTFYYNAMGRYRHATGKERELVAGITQSGGNTYYADSVKGRFTISRDNAKNTVYLHMNSLKPEDTVVYYCAARIRGTWKYGYWGQGTQVTVSS	low polyreactivity
QVHLVESGGGLVQAGGSHRLRCAASGRIFSGYAKGRYRQAPGKERELVAAITQSGGSTSYADSVKGRFTISRDNAKNTVYLQMIRLKPEDTAVYYCNVDDSTWIGAYRRYDYWGQGTQVTVSS	low polyreactivity
QVHLVESGGGLVQAGGSIRLSCAASGRTFAYNVKGWYIQAPGKVREVVAGISFGAGSTYYADSVKGRFTISRDNAKNTVYLQMNSLKPEDTAVYYCATGRRGTRYPRGYDYWGQGTQVTVSS	high polyreactivity
QVHLVESGGGLVQAGGSLRISCAASGIIFYTYARGWYRQAPGKERELVAAISRSGGSTYYADSVKGRFTISRDNAKYTVYLQMNSRKPEDTAVDYCAADSTYRSTIQDYYWGQGTQVSVSS	high polyreactivity
QVHLVESGGGLVQAGGSLRISCAASGSTFHGYAMGWYRQEPGKEMELVAAITSGDSTNYADSVKGRFTISRDNAKNTVYLQMNSLKPEDTAVYFCNAEGDSLLTGYWGYPPYWDTYDNWGQGTQVTVSS	low polyreactivity
QVHLVESGGGLVQAGGSLRISCAASGSTFVYYAMGWYRQAPGTERELVAAISVSGDSTYYADSVKGRFTISRDNAKNTVYLQMNSLKPEDTAVYYCATEVYWTVSYYGYDYYGGNYYYWGQGTQVTVSS	low polyreactivity
QVHLVESGGGLVQAGGSLRISCAASGYIFSYYAMGWYRQAPGKERELVASITSSGGSTYYADSVKGRFTISRDNAKNTVYLQMNSLKPEYTAEYYCNADVYDTYSPLGYYYWGQGTQVTVSS	low polyreactivity
QVHLVESGGGLVQAGGSLRLICAASGFIFPRTAMGSYRQAPGKERELVAAISVSGGSTYYADSVKGRFTISRDYAKNTVYLQMNSLKPEDTAVYYCAKRTWDLRRTRHYYWGQGNQVTVSS	low polyreactivity
QVHLVESGGGLVQAGGSLRLICAASGRIFTKYAMGCYRQAPGKEREVVAAISYRGGSTYYADSVKGRFTISRDNAKNTVYLQMNILKPEDTAVYYCAAYATSTRYCYWGQGTQVTVSS	high polyreactivity
QVHLVESGGGLVQAGGSLRLICAASGRTFWYYAMGWYRQAPGKERELVAAITSGGSTNYADSVKRRFTISRDNAKNTVYLQMNILKPEDTAVYYCATDNPVFEYDYCGQGTQVTVSS	low polyreactivity
QVHLVESGGGLVQAGGSLRLRCAASGIIFKSYAMGWYRQAPGKERELVAAITKRGGSTYYADSVKGRFTISRDNAKNTVYLQMNSLKPEDTAVYDCAADDGVGNTDDYWGQGTQVTVSS	high polyreactivity
QVHLVESGGGLVQAGGSLRLRCAASGRIFPSNAMGWYRQAPWKERELVAGITWRRDSTYYADSVKGRFTISRDKAKNTVYLQMNSLKPEDTAVYYCAATFRYTKLYYWGQGTQVTVSS	low polyreactivity
QVHLVESGGGLVQAGGSLRLRCAASGYPFKRNDMGWYRHAPGKETQFVPAISKSGGSTYYADSVKGRFTISRDNAKNSVYLQRNSLKPEDTAVSYCAATRGLYRYWGRDKFDYWGQGTQVTVSS	low polyreactivity
QVHLVESGGGLVQAGGSLRLSCAACGSNLFVNTMGWYRQAPGKERELVAAISWIDGSTYYADSVKGRFTISRDNAKNSVYLHMNSLKPEDTAVYYCAASTYWREYDYWGQGTQVNVSS	low polyreactivity
QVHLVESGGGLVQAGGSLRLSCAASASTLGSNTMGWYRQAPGKERELVATISRRGGSTYYADSVKGRFTISRDNAKYTVYLQMNSLKPADTAVYYCAARPVYKFGSWGQGTQVTVSS	high polyreactivity
QVHLVESGGGLVQAGGSLRLSCAASGFIFAEYAMGWYRQEPGKERELVATINIGGSTYYADSVKGRFTISRDNAKNTVYLQMNSLKPEDTAVYYCAAEFWWGDGSQGIYDYDYWGQGSQVTVSS	low polyreactivity
QVHLVESGGGLVQAGGSLRLSCAASGFIFLGNAMGGYRQAPGKERELVAAISSGGSTYADSVKGRFTISRDNAKNTVYLQMNSLKPEDTAVYYCAVDRAFRAQNYHEYDYWGQGTQVTVSS	low polyreactivity
QVHLVESGGGLVQAGGSLRLSCAASGFIFRSYAMGWYRQAPGKEREFVAAITTRGTGTYYADSVKGRFTISRDNEKNTFYLQMNSLKPEDTAVYYCAARRGWGDDYWGQGTQVTVSS	high polyreactivity
QVHLVESGGGLVQAGGSLRLSCAASGFNFNKYALGWYRQAPGKERELVAAITIGGSTYYADSVKGRFTISRDNAKNTVYFQMNSLKPEDTAVYYCAAVQGKVRGGYYWGQGTQVTVSS	high polyreactivity
QVHLVESGGGLVQAGGSLRLSCAASGFTFDYYAMGWYRQAPGKERELVAAISWSGASTYYADSVKGRFTISRDNAKNTVYLQMNSLKPEDTAVYYCNRPKWYDGDYWGQGTQVTVSS	high polyreactivity
QVHLVESGGGLVQAGGSLRLSCAASGFTFIDYAMGWYRQAPGTERELVAAITTGTITYYADSVQGRFTISRDNAKNTVYLQMNSLKPEDTAVYYCAPTYSRRGGYRMEYWGQGTQVTVSS	low polyreactivity
QVHLVESGGGLVQAGGSLRLSCAASGFTFLKNAMVWNRQAPWKERELVAAITSSGGRTYYADSVKGRFTISRDNAKNTVYLQMNSLKPEDTAVYYCNKGPLPGYDYWGQGTQVTVSS	high polyreactivity

Sequence	polyreactivity (PSR sort gate)
QVHLVESGGGLVQAGGSLRLSCAASGFTFLTNAMGWYRQAPGKERELVAAISQSGGRTYYADSVKGRFTISRDNAKNTVYLQMNSLKPEDTAVYYCAAGVRSTGRMDYWGQGTQVTVSS	high polyreactivity
QVHLVESGGGLVQAGGSLRLSCAASGFTFPYYAMGWYRQAPGKERELVATIRSGGSTYYADSVKGRFTISRDNAKNSVYLQMNSLKPEDTAVYYCAKYQGLYSYEKYGYWGQGTQVTVSS	low polyreactivity
QVHLVESGGGLVQAGGSLRLSCAASGFTFRWYAMGGDRQAPGKERALVAAIDSTDITNYADSVKGRFTISRDNAKNTVYLQMNSLKPEDTAVYYCAAELYPALYPFRISGTYGYWGQGTLVTVSS	high polyreactivity
QVHLVESGGGLVQAGGSLRLSCAASGFTFRYNAMGWYRQAPGKERELVAAISWSGGSTYYADSVKGRFTISRDNAKNTVYLQMNSLKPEDTAVYYCNVGWGRVYKSRYDYWGQGTQVTVSS	high polyreactivity
QVHLVESGGGLVQAGGSLRLSCAASGFTIASYDMGWYRQAPGKERELVAAISKGGGRTYYADSVKGRFTISRDNSKNTVYLQMNSLQPEDTAVYYCAAYAPYPRRAYDYWGQGTQVTVSS	low polyreactivity
QVHLVESGGGLVQAGGSLRLSCAASGFTYSPYVMGWSRQAPGKEWELVASISKRGGGTYYADSVKGRFTISRDNAKKTFYLQMNRLKPEDTAVYYCNVVTATAYQGVDYWGQGSQVTVSS	high polyreactivity
QVHLVESGGGLVQAGGSLRLSCAASGGIFDPYAMGWYRQAPGKERELVAAITNSGGSTYYADTLKGRFTISRDNAKNTVDLQMNSLKPEDTAVSYCAAEGLYVGYDYWGQGTEVTVSS	low polyreactivity
QVHLVESGGGLVQAGGSLRLSCAASGITDWIYAMGWYRQAPGKERELVAAITGRGGSTYYADSVKGRFTISRDKAKNTVYLQMNSLKPEVTAVDYCAAESWYSTYDYWGQGTQVTVSS	high polyreactivity
QVHLVESGGGLVQAGGSLRLSCAASGITFATYAMGWYRQAPGKERELVAAISGGGGRTYYADSVKGRFTISRDNAKNSVYLQMNSLKPEDTAVYYCATSQRSSQFYHWGQGTQVTVSS	high polyreactivity
QVHLVESGGGLVQAGGSLRLSCAASGITFYVYAMGWYRQAPGKERELVAAINYDSGSTYYADSVKGRFTISRDNAKNTVYLQMISLKPEDTAVYYCATDGVNPFYAYDYWGQGNQVTVSS	low polyreactivity
QVHLVESGGGLVQAGGSLRLSCAASGITIWNNAMGWYRQAPGKERELVATISSNGGRTYYADSVKGRFTISLDTAKNTVYFQMNSLKPEDTAVYYCNAARRAYGYNYWGQGTQVTVSS	low polyreactivity
QVHLVESGGGLVQAGGSLRLSCAASGLIFRKYAMGWYRQAPGKERELVAAISSGGDTNYADSVKGRFTISRDNAKNTVYLQMNSLKPEDTAVYYCNADRKYWYGIALEYWGQGTQVTVSS	high polyreactivity
QVHLVESGGGLVQAGGSLRLSCAASGLTFSSYSMGWYRQAPAKERELVATITSSGGDNTNYADSVKGRFTISRDNAKNTVYLQMNSLKPEDTAVYYFNKEGQQSYRWRMDYWGQGTQVTVSS	low polyreactivity
QVHLVESGGGLVQAGGSLRLSCAASGNIFYVYVMGWYRQAPGKERELVAYITSGASTYYSDSVKGRFTISRDNAKNTVYFQMNSLKPEDTAVYYCAAEALGGAGAYSTLYIYDYWGEGTQVTVSS	low polyreactivity
QVHLVESGGGLVQAGGSLRLSCAASGNTFDINAMGWYRQAPGKERELVAAISFSGGDTYYADSVKGRFTISRDNAKNTVYLQMNILKPEHTAVYYCAAEVPDTDAYGYWGQGTQVTVSS	low polyreactivity
QVHLVESGGGLVQAGGSLRLSCAASGNTFRWYDMGWYRQAPGKERELVAAITSSGSTTYYADSVKGRFTISRDNAKNTVYLQMNSLKPEDTAVFYCAARNYGPYDYWGQGTQVTVSS	low polyreactivity
QVHLVESGGGLVQAGGSLRLSCAASGRIFARYAMGWYRQAPGKEREFVASISFRGGSTYYADSVKGRFTISRDNAKNTVYLQMNSLKPEDTAVYYCAAEGYTRAYSGFYWYDYWGQGTQVTVSS	high polyreactivity
QVHLVESGGGLVQAGGSLRLSCAASGRIFDDYAMGWYRQAPGKERELVAAISWSGGSTYYADSVKVRFTISRDNAKNTVYLQRNSLKPEDTAVYYCAAPYHYYKRIGYDYWGQGTQVTVSS	low polyreactivity
QVHLVESGGGLVQAGGSLRLSCAASGRIFFYYAMGWYRQAPGKERELVAAISSTGGSTNYADSVKGRFTISRDNAKNTVYLQMNSLKPEDTAVYYCNKDLYYAYDYWGQGTQVTVSS	low polyreactivity
QVHLVESGGGLVQAGGSLRLSCAASGRIFGEYAMGWYRQAPGKERELVAAINSCGTSTNYADSVKGRLTFSRDNAKNTVYLQMNSLKPEDTAVYYCNAVGTYRPEYDSWVQGTQVTVSS	low polyreactivity
QVHLVESGGGLVQAGGSLRLSCAASGRIFGIYAMGWYRQAPGKERELVALITGGGSTNYADSVKGRFTISRDNAKNTVYLQMNSLKPEDTAVYYCAATVRRIVGNITRYDYWGQGTQVTVSS	low polyreactivity
